Measured values published in publication PMC7948415.

Target: alternative C3 convertase, C3bBb (human) (UniProt P01024)

B1: SG7.AF (natural protein)
chain: ARKHVQELLKTFRRIDFDETRKSVYLQSAKFGVQSQLREPLTKKVLNYWDDVKLSKTCLDRMVTKVNDVKETFYAGFSYACESHNQYSVDCLEAAKPSYLTALGEIRGETEKCLTTRLK
- IC50 of inhibition of AP-mediated hemolysis of rabbit erythrocytes, properdin-depleted serum against normal human serum: 6 fold
